Measurements from US20200199204A1 (UNITED STATES OF AMERICA AS REPRESENTED BY THE SECRETARY …, published 2020).

How the values were obtained:
Assay in all cases: cell-based or functional assay
HIV-1 Env of 191821.E6.1 = HIV-1 Env of 191821.E6.1 (HIV-1)
HIV-1 Env of Q769.d22 = HIV-1 Env of Q769.d22 (HIV-1)
HIV-1 Env of REJO.67 = HIV-1 Env of REJO.67 (HIV-1)
HIV-1 Env of 96ZM651.02 = HIV-1 Env of 96ZM651.02 (HIV-1)
HIV-1 Env of 0260.v5.c36 = HIV-1 Env of 0260.v5.c36 (HIV-1)
HIV-1 Env of TRJO.58 = HIV-1 Env of TRJO.58 (HIV-1)
HIV-1 Env of Q461.e2 = HIV-1 Env of Q461.e2 (HIV-1)
HIV-1 Env of CAP244.D3 = HIV-1 Env of CAP244.D3 (HIV-1)
HIV-1 Env of Q23.17 = HIV-1 Env of Q23.17 (HIV-1)
HIV-1 Env of MB539.2B7 = HIV-1 Env of MB539.2B7 (HIV-1)
HIV-1 Env of DU422.01 = HIV-1 Env of DU422.01 (HIV-1)
HIV-1 Env of MB201 = HIV-1 Env of MB201 (HIV-1)
HIV-1 Env of ZM197.7 = HIV-1 Env of ZM197.7 (HIV-1)
HIV-1 Env of ZM53.12 = HIV-1 Env of ZM53.12 (HIV-1)
HIV-1 Env of 3016.V5.c36 = HIV-1 Env of 3016.V5.c36 (HIV-1)
HIV-1 Env of C1080.c3 = HIV-1 Env of C1080.c3 (HIV-1)
HIV-1 Env of CAP210.E8 = HIV-1 Env of CAP210.E8 (HIV-1)
HIV-1 Env of ZM214.15 = HIV-1 Env of ZM214.15 (HIV-1)
HIV-1 Env of ZM135.10a = HIV-1 Env of ZM135.10a (HIV-1)
HIV-1 Env of KER2008.12 = HIV-1 Env of KER2008.12 (HIV-1)
HIV-1 Env of PVO.04 = HIV-1 Env of PVO.04 (HIV-1)
HIV-1 Env of 6535.3 = HIV-1 Env of 6535.3 (HIV-1)
HIV-1 Env of DU172.17 = HIV-1 Env of DU172.17 (HIV-1)
HIV-1 Env of CM244.ec1 = HIV-1 Env of CM244.ec1 (HIV-1)
HIV-1 Env of SC422.8 = HIV-1 Env of SC422.8 (HIV-1)
HIV-1 Env of CAP256.PI = HIV-1 Env of CAP256.PI (HIV-1)
HIV-1 Env of ZM249.1 = HIV-1 Env of ZM249.1 (HIV-1)
HIV-1 Env of Q168.a2 = HIV-1 Env of Q168.a2 (HIV-1)
HIV-1 Env of DU156.12 = HIV-1 Env of DU156.12 (HIV-1)
HIV-1 Env of QH0692.42 = HIV-1 Env of QH0692.42 (HIV-1)
HIV-1 Env of UG037.8 = HIV-1 Env of UG037.8 (HIV-1)
HIV-1 Env of Q842.d12 = HIV-1 Env of Q842.d12 (HIV-1)
HIV-1 Env of AC10.29 = HIV-1 Env of AC10.29 (HIV-1)
HIV-1 Env of ZM233.6 = HIV-1 Env of ZM233.6 (HIV-1)
HIV-1 Env of CAP45.G3 = HIV-1 Env of CAP45.G3 (HIV-1)
HIV-1 Env of ZM109.4 = HIV-1 Env of ZM109.4 (HIV-1)
HIV-1 Env of KER2018.11 = HIV-1 Env of KER2018.11 (HIV-1)
HIV-1 Env of THRO.18 = HIV-1 Env of THRO.18 (HIV-1)
HIV-1 Env of 6405.v4.c34 = HIV-1 Env of 6405.v4.c34 (HIV-1)
HIV-1 Env of Q259.d2.17 = HIV-1 Env of Q259.d2.17 (HIV-1)
HIV-1 Env of RW020.2 = HIV-1 Env of RW020.2 (HIV-1)
HIV-1 Env of CAAN.A2 = HIV-1 Env of CAAN.A2 (HIV-1)
HIV-1 Env of BG505.w6m = HIV-1 Env of BG505.w6m (HIV-1)
HIV-1 Env of CAP256.SU = HIV-1 Env of CAP256.SU (HIV-1)
HIV-1 Env of WITO.33 = HIV-1 Env of WITO.33 (HIV-1)
HIV-1 Env of RHPA.7 = HIV-1 Env of RHPA.7 (HIV-1)
HIV-1 Env of TRO.11 = HIV-1 Env of TRO.11 (HIV-1)

B1: CAP256-VRC26.07 (antibody, V domains shown)
VH: EVQLVESGGGVVQPGRSLRLSCVGSQFSFNRYGMHWVRQAPGKGLEWVAGISFDGTDRYHADNVWGRFTISRDNSKNTLYLQMSSLRAEDTALYYCAKDLREDECEEWWSDYYDFGKKLPCRKSRGVAGVFDKWGQGTMVTVSS
VL: QAVLTQPPSVSAAPGQNVTISCSGSGSNIGNNFVSWYQQRPGTAPKLLIYESNKRPSGIPDRFSGSKSGTSATLAITGLQTGDEAYYYCATWAARLNSARVFGTGTMVTVLG
HIV-1 Env of 191821.E6.1
  neutralization IC50: > 50 µg/mL
HIV-1 Env of Q769.d22
  neutralization IC50: > 50 µg/mL
HIV-1 Env of REJO.67
  neutralization IC50: > 50 µg/mL
HIV-1 Env of 96ZM651.02
  neutralization IC50: > 50 µg/mL
HIV-1 Env of 0260.v5.c36
  neutralization IC50: > 50 µg/mL
HIV-1 Env of TRJO.58
  neutralization IC50: > 50 µg/mL
HIV-1 Env of Q461.e2
  neutralization IC50: > 50 µg/mL
HIV-1 Env of CAP244.D3
  neutralization IC50: > 50 µg/mL
HIV-1 Env of Q23.17
  neutralization IC50: > 50 µg/mL
HIV-1 Env of MB539.2B7
  neutralization IC50: > 50 µg/mL
HIV-1 Env of DU422.01
  neutralization IC50: > 50 µg/mL
HIV-1 Env of MB201
  neutralization IC50: > 50 µg/mL
HIV-1 Env of ZM197.7
  neutralization IC50: > 50 µg/mL
HIV-1 Env of ZM53.12
  neutralization IC50: 0.014 µg/mL
HIV-1 Env of 3016.V5.c36
  neutralization IC50: > 50 µg/mL
HIV-1 Env of C1080.c3
  neutralization IC50: > 50 µg/mL
HIV-1 Env of CAP210.E8
  neutralization IC50: 0.021 µg/mL
HIV-1 Env of ZM214.15
  neutralization IC50: > 50 µg/mL
HIV-1 Env of ZM135.10a
  neutralization IC50: > 50 µg/mL
HIV-1 Env of KER2008.12
  neutralization IC50: > 50 µg/mL
HIV-1 Env of PVO.04
  neutralization IC50: > 50 µg/mL
HIV-1 Env of 6535.3
  neutralization IC50: > 50 µg/mL
HIV-1 Env of DU172.17
  neutralization IC50: > 50 µg/mL
HIV-1 Env of CM244.ec1
  neutralization IC50: 40.1 µg/mL
HIV-1 Env of SC422.8
  neutralization IC50: > 50 µg/mL
HIV-1 Env of CAP256.PI
  neutralization IC50: > 50 µg/mL
HIV-1 Env of ZM249.1
  neutralization IC50: 44.1 µg/mL
HIV-1 Env of Q168.a2
  neutralization IC50: > 50 µg/mL
HIV-1 Env of DU156.12
  neutralization IC50: > 50 µg/mL
HIV-1 Env of QH0692.42
  neutralization IC50: > 50 µg/mL
HIV-1 Env of UG037.8
  neutralization IC50: > 50 µg/mL
HIV-1 Env of Q842.d12
  neutralization IC50: > 50 µg/mL
HIV-1 Env of AC10.29
  neutralization IC50: > 50 µg/mL
HIV-1 Env of ZM233.6
  neutralization IC50: > 50 µg/mL
HIV-1 Env of CAP45.G3
  neutralization IC50: > 50 µg/mL
HIV-1 Env of ZM109.4
  neutralization IC50: > 50 µg/mL
HIV-1 Env of KER2018.11
  neutralization IC50: 3.1 µg/mL
HIV-1 Env of THRO.18
  neutralization IC50: > 50 µg/mL
HIV-1 Env of 6405.v4.c34
  neutralization IC50: > 50 µg/mL
HIV-1 Env of Q259.d2.17
  neutralization IC50: 42.5 µg/mL
HIV-1 Env of RW020.2
  neutralization IC50: > 50 µg/mL
HIV-1 Env of CAAN.A2
  neutralization IC50: > 50 µg/mL
HIV-1 Env of BG505.w6m
  neutralization IC50: > 50 µg/mL
HIV-1 Env of CAP256.SU
  neutralization IC50: 0.008 µg/mL
HIV-1 Env of WITO.33
  neutralization IC50: > 50 µg/mL
HIV-1 Env of RHPA.7
  neutralization IC50: > 50 µg/mL
HIV-1 Env of TRO.11
  neutralization IC50: > 50 µg/mL

B2: CAP256-VRC26.08 (antibody, V domains shown)
VH: EVQLVESGGGVVQPGRSLTLSCAASQFTFSNYGMHWVRQAPGKGLEWVASVSNDGTKKYHGDSVWGRFTISRDNSKNTLFLQMSSLRAEDTAVYFCVRDQREDECEEWWSDYYDFGRELPCRKFRGLGLAGIFDIWGHGTMVTVSS
VL: QSALTQPPSVSAAPGQKVTISCSGNSSNIGNNFVSWYQQVPGTAPKLLLYETYRRPSGIPDRFSGSKSGTSATLAITGLQTGDEADYYCTVWGVRKGVGAVFGTGTKVTVLG
HIV-1 Env of 191821.E6.1
  neutralization IC50: 0.37 µg/mL
HIV-1 Env of Q769.d22
  neutralization IC50: > 50 µg/mL
HIV-1 Env of REJO.67
  neutralization IC50: > 50 µg/mL
HIV-1 Env of 96ZM651.02
  neutralization IC50: 2.82 µg/mL
HIV-1 Env of 0260.v5.c36
  neutralization IC50: > 50 µg/mL
HIV-1 Env of TRJO.58
  neutralization IC50: > 50 µg/mL
HIV-1 Env of Q461.e2
  neutralization IC50: 0.969 µg/mL
HIV-1 Env of CAP244.D3
  neutralization IC50: > 50 µg/mL
HIV-1 Env of Q23.17
  neutralization IC50: 13.3 µg/mL
HIV-1 Env of MB539.2B7
  neutralization IC50: 31.7 µg/mL
HIV-1 Env of DU422.01
  neutralization IC50: 0.008 µg/mL
HIV-1 Env of MB201
  neutralization IC50: > 50 µg/mL
HIV-1 Env of ZM197.7
  neutralization IC50: 0.008 µg/mL
HIV-1 Env of ZM53.12
  neutralization IC50: 0.004 µg/mL
HIV-1 Env of 3016.V5.c36
  neutralization IC50: 0.013 µg/mL
HIV-1 Env of C1080.c3
  neutralization IC50: 0.012 µg/mL
HIV-1 Env of CAP210.E8
  neutralization IC50: 0.006 µg/mL
HIV-1 Env of ZM214.15
  neutralization IC50: > 50 µg/mL
HIV-1 Env of ZM135.10a
  neutralization IC50: > 50 µg/mL
HIV-1 Env of KER2008.12
  neutralization IC50: > 50 µg/mL
HIV-1 Env of PVO.04
  neutralization IC50: 11.8 µg/mL
HIV-1 Env of 6535.3
  neutralization IC50: > 50 µg/mL
HIV-1 Env of DU172.17
  neutralization IC50: > 50 µg/mL
HIV-1 Env of CM244.ec1
  neutralization IC50: 1.09 µg/mL
HIV-1 Env of SC422.8
  neutralization IC50: > 50 µg/mL
HIV-1 Env of CAP256.PI
  neutralization IC50: > 50 µg/mL
HIV-1 Env of ZM249.1
  neutralization IC50: 0.076 µg/mL
HIV-1 Env of Q168.a2
  neutralization IC50: 0.256 µg/mL
HIV-1 Env of DU156.12
  neutralization IC50: 0.059 µg/mL
HIV-1 Env of QH0692.42
  neutralization IC50: > 50 µg/mL
HIV-1 Env of UG037.8
  neutralization IC50: > 50 µg/mL
HIV-1 Env of Q842.d12
  neutralization IC50: 40.4 µg/mL
HIV-1 Env of AC10.29
  neutralization IC50: > 50 µg/mL
HIV-1 Env of CAP45.G3
  neutralization IC50: 4.69 µg/mL
HIV-1 Env of ZM109.4
  neutralization IC50: > 50 µg/mL
HIV-1 Env of KER2018.11
  neutralization IC50: 0.003 µg/mL
HIV-1 Env of THRO.18
  neutralization IC50: > 50 µg/mL
HIV-1 Env of 6405.v4.c34
  neutralization IC50: > 50 µg/mL
HIV-1 Env of Q259.d2.17
  neutralization IC50: 0.009 µg/mL
HIV-1 Env of RW020.2
  neutralization IC50: > 50 µg/mL
HIV-1 Env of CAAN.A2
  neutralization IC50: > 50 µg/mL
HIV-1 Env of BG505.w6m
  neutralization IC50: 0.143 µg/mL
HIV-1 Env of CAP256.SU
  neutralization IC50: 0.003 µg/mL
HIV-1 Env of WITO.33
  neutralization IC50: > 50 µg/mL
HIV-1 Env of RHPA.7
  neutralization IC50: > 50 µg/mL
HIV-1 Env of TRO.11
  neutralization IC50: > 50 µg/mL
